These results are taken from paper PMC10567836.

The target of the assay is CD45 on human peripheral blood mononuclear cells (human (endogenous in PBMC)) (UniProt P08575).
UniProt P08575, sequence (P08575 26-1306): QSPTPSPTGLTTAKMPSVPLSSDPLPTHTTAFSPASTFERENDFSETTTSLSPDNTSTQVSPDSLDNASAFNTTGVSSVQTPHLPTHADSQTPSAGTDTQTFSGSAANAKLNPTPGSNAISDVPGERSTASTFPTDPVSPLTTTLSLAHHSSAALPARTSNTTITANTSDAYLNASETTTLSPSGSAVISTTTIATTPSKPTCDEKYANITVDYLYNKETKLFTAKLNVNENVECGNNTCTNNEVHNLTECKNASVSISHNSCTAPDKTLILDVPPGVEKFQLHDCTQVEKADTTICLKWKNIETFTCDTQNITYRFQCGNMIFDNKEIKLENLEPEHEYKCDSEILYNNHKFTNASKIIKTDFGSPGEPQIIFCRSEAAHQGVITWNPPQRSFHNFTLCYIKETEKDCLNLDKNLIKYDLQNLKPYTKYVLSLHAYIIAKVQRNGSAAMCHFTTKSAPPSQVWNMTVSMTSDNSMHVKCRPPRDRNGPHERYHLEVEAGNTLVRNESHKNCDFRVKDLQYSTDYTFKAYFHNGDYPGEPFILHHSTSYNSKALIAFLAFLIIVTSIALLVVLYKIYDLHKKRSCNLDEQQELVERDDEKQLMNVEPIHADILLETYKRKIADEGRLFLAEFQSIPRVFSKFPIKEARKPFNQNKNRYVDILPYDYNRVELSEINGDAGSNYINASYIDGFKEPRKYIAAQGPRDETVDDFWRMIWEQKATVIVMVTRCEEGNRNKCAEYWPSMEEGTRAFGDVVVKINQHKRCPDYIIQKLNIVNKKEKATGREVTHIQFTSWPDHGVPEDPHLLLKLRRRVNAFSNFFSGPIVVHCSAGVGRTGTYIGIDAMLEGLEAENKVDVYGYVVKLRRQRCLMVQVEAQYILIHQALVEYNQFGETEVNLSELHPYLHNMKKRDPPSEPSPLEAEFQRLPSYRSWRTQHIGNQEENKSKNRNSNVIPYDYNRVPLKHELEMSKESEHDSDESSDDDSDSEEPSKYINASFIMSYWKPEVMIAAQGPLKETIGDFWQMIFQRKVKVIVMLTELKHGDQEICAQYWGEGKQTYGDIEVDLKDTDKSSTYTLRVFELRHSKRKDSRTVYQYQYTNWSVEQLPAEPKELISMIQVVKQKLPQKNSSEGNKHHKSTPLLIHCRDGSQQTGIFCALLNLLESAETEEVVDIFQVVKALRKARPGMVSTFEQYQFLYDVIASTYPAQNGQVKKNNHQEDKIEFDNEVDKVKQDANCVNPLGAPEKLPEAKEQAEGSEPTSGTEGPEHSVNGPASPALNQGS

“HAdV-D64 (Ad19a) protein E3/49K expressed on porcine L23 cells (natural protein)”: the phosphorylated p56lck(p505) in CD4+ T cells of human PBMC stimulated for 48 h with L23-E3/49K cells (15–20% with L23-control or L23-UL11 cells), intracellular flow cytometry (% of CD4+ T cells) amounted to 40.
